Reference: paper PMC5775914 (Cell chemical biology, 2017)

Target: fluorescein-labeled histone H3 N-terminal peptide (residues 1-21) (UniProt P68431 2-22, fluorescein-labeled (position not given))
Assay: fluorescence polarisation

B1: recombinant UBR7 PHD finger (domain or fragment)
chain: GLYCICKRPYPDPEDEIPDEMIQCVVCEDWFHGRHLGAIPPESGDFQEMVCQACMKR
Kd: 50 to 100 µM
